In general, Kd refers to the concentration at which binding is half-saturated. A high value points to lower affinity.

Drawing on paper PMC12117155 (Nature Communications, 2025), this text covers Kd for 1 molecule.

The assay has as its target randomly biotinylated GCase (Velaglucerase) (human, UniProt P04062, biotin, randomly on lysine residues (EZ-Link Sulfo-NHS-LC-Biotin); glycosylated). Nature of the assay: BLI. For orientation: In BLI a coated tip is dipped into the sample, and binding shifts an interference pattern.

randomly biotinylated GCase (Velaglucerase), sequence (P04062 40-536): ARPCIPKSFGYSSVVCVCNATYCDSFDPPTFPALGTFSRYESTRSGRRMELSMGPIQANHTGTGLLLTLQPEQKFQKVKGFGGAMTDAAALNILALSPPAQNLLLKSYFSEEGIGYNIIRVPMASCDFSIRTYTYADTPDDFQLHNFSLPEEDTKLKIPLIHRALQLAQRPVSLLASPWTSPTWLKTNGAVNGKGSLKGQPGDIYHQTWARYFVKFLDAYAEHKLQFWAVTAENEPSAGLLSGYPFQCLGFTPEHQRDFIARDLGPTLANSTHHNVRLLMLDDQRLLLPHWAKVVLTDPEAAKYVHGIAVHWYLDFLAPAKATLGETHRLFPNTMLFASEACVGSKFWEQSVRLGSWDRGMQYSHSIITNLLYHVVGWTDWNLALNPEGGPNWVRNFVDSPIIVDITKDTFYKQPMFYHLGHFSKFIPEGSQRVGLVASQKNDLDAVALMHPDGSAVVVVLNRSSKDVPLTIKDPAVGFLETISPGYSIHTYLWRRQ

B1: Nb1, C-terminally LPETGG-His6-EPEA-tagged (pHEN29) (VHH)
VHH: QVQLVESGGGLVQPGGSLRLSCAASGFTLDYYAIGWFRQAPGKEREGVSCISSSDGSTYYADSAKGRFTISRDNAKNTVYLQMNSLKPEDTAVYYCATDRGQCTYYSSGYYRDLRWYDYWGQGTQVTVSS
On to B1, for which the dissociation constant Kd was less than 5 nM.
